Target: Substitution of D2595 or D2584 with alanine (ASH1L PHD finger mutants)
Experiment: not stated; wild type and mutants of ASH1LPHD with H3K4me3 peptide (Fig. 3c, Supplementary Figs. 5 and 6); the legend names tryptophan fluorescence, MST or NMR, which for each mutant is marked only in the figure

histone H3K4me3 peptide (aa 1-12 of H3) (from UniProt P68431 2-13)
Kd: 5 to 7 µM

Reference: PMC11883000, “Structure-function relationship of ASH1L and histone H3K36 and H3K4 methylation” (Nature Communications, 2025)
